Assay [1] addresses PSCA (form used in Biacore not stated) (UniProt O43653). Briefly: Biacore, apparent affinity.
Assay [2] addresses PSCA on cells (PSCA-transfected B-cell line, LNCaP prostate cancer cells, SKW-PSCA+ cells) (human) (UniProt O43653). In words: immunoreactivity of radioiodinated diabody.
The target in assay [3] is T1, PSCA (form used in Biacore not stated) (UniProt O43653 12-86, limits assumed).
T1 construct: The antigen preparation for the Biacore measurements and for the 4-fold statement is not described; also called prostate stem cell antigen
T1 sequence (looked up): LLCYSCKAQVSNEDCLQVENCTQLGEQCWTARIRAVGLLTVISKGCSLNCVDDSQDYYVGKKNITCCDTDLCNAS
Briefly: method not stated; humanized antibody compared with murine 1G8.

Assay [4] addresses T2, purified PSCA-Fc (UniProt O43653 12-86).
T2 construct: The construct is described only by a literature citation; not shown: Fc part not described
T2 sequence (looked up): T1 sequence (looked up)
In words: competition ELISA, wells coated with PSCA-Fc. As to the method: To examine the structural characteristics of the 2B3 minibody, SDS-PAGE was conducted under reducing and non-reducing conditions. The minibody migrated with a MW of ~47 kDa under reducing conditions and ~95 kDa under non-reducing (FIG. 2). […] The minibody's apparent affinity with respect to its intact antibody counterpart and the original mouse monoclonal antibody (1G8), was determined by competition ELISA.
PSCA relative binding affinity for the minibodies was determined by competition ELISA in which microtiter plate wells were coated with purified PSCA-Fc (Z Gu, T. Olafsen et al. 2006).
(In general: An ELISA detects its analyte on a solid surface through an enzyme-linked reagent.)

In assay [5] the target is T1, PSCA (form used in Biacore not stated). In words: Biacore, apparent affinity; parental diabody, not affinity matured. (In general: In SPR one partner is held on a chip, and binding of the other changes the refractive index at the surface.)

Regarding “affinity matured 2B3 anti-PSCA diabody (scFv dimer, eight amino acid linker)”, the Kd in assay [1] amounted to 1.89 nM. The molecule also displayed an immunoreactivity in assay [2] of 22%.

B1: humanized 2B3 anti-PSCA antibody (intact) (antibody, V domains shown)
VH: EVQLVESGGGLVQPGGSLRLSCAASGFNIKDYYIHWVRQAPGKGLEWVAWIDPENGDTEFVPKFQGRATISADTSKNTAYLQMNSLRAEDTAVYYCKTGGFWGQGTLVTVSS
VL: DIQLTQSPSSLSASVGDRVTITCSASSSVRFIHWYQQKPGKAPKRLIYDTSKLASGVPSRFSGSGSGTDFTLTISSLQPEDFATYYCQQWSSSPFTFGQGTKVEIK
notes: Intact humanized antibody; also called intact 2B3 antibody; humanized 2B3 antibody
Take B1: the “fold reduction in affinity (against murine 1G8)” value in assay [3] came to 4 fold.

B2: humanized anti-PSCA minibody (2B3 scFv-CH3 dimer) (other)
chain: DIQLTQSPSSLSASVGDRVTITCSASSSVRFIHWYQQKPGKAPKRLIYDTSKLASGVPSRFSGSGSGTDFTLTISSLQPEDFATYYCQQWSSSPFTFGQGTKVEIKGSTSGGGSGGGSGGGGSSEVQLVESGGGLVQPGGSLRLSCAASGFNIKDYYIHWVRQAPGKGLEWVAWIDPENGDTEFVPKFQGRATISADTSKNTAYLQMNSLRAEDTAVYYCKTGGFWGQGTLVTVSSEPKSCDKTHTCPPCGGGSSGGGSGGQPREPQVYTLPPSRDELTKNQVSLTCLVKGFYPSDIAVEWESNGQPENNYKTTPPVLDSDGSFFLYSKLTVDKSRWQQGNVFSCSVMHEALHNHYTQKSLSLSPGK
notes: Covalent dimer of about 95 kDa; also called 2B3 minibody; parental minibody
Consider B2, for which, in assay [4], the “fold lower affinity than the intact 2B3 antibody” value is about 2 fold and the “fold lower relative affinity than the murine antibody (1G8)” value came out at 9.2 fold.

B3: parental 2B3 anti-PSCA diabody (scFv dimer, eight amino acid linker) (scFv)
scFv: DIQLTQSPSSLSASVGDRVTITCSASSSVRFIHWYQQKPGKAPKRLIYDTSKLASGVPSRFSGSGSGTDFTLTISSLQPEDFATYYCQQWSSSPFTFGQGTKVEIKGGGSGGGSEVQLVESGGGLVQPGGSLRLSCAASGFNIKDYYIHWVRQAPGKGLEWVAWIDPENGDTEFVPKFQGRATISADTSKNTAYLQMNSLRAEDTAVYYCKTGGFWGQGTLVTVSS
notes: also called parental diabody; 2B3 diabody
As to B3, the Kd in assay [5] amounted to 5.41 nM.

(Values after patent publication US8940871 (University of California, dated 2015).)
